# Assay results reported in the supplement of paper PMC10065799, “High-throughput profiling of sequence recognition by tyrosine kinases and SH2 domains using bacterial peptide display” (eLife, 2023).
# Columns and labels:
# AncSZ = test: phosphorylation enrichment, bacterial display (enrichment ratio); higher = better substrate or ligand; peptides without Tyr show the background
# EPHB1 = EPHB1 (UniProt P54762); test: as above
# EPHB2 = EPHB2 (UniProt P29323); test: as above
# FGFR1 = FGFR1 (UniProt P11362); test: as above
# Chain of FGFR1 (P11362 whole entry, looked up): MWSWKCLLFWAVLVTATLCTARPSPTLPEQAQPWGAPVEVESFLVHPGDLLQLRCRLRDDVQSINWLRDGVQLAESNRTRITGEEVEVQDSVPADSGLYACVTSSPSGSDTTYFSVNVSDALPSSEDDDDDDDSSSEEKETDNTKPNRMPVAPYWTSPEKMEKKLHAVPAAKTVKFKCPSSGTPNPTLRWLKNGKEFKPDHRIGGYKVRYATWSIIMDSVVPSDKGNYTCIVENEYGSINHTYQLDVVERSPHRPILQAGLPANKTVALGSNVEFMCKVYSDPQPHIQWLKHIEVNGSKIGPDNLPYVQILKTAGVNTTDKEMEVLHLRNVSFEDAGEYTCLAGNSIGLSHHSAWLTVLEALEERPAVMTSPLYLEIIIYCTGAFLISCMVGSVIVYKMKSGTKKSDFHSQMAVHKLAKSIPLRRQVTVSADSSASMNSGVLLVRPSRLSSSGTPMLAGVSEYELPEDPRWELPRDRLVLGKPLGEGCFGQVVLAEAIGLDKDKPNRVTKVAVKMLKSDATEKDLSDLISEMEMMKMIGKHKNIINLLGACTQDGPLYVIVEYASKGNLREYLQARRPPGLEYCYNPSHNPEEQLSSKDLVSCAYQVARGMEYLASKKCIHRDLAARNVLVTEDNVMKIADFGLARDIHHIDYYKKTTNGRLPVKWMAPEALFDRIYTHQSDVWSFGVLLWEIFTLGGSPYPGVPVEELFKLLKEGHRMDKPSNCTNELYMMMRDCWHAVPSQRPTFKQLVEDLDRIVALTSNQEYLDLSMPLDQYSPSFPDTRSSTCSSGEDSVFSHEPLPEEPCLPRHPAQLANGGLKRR
# FGFR3 = FGFR3 (UniProt P22607); test: as above
# Fer (mouse) = test: as above
# Fes = Fes (UniProt P07332); test: as above
# Chain of Fes (P07332 whole entry, looked up): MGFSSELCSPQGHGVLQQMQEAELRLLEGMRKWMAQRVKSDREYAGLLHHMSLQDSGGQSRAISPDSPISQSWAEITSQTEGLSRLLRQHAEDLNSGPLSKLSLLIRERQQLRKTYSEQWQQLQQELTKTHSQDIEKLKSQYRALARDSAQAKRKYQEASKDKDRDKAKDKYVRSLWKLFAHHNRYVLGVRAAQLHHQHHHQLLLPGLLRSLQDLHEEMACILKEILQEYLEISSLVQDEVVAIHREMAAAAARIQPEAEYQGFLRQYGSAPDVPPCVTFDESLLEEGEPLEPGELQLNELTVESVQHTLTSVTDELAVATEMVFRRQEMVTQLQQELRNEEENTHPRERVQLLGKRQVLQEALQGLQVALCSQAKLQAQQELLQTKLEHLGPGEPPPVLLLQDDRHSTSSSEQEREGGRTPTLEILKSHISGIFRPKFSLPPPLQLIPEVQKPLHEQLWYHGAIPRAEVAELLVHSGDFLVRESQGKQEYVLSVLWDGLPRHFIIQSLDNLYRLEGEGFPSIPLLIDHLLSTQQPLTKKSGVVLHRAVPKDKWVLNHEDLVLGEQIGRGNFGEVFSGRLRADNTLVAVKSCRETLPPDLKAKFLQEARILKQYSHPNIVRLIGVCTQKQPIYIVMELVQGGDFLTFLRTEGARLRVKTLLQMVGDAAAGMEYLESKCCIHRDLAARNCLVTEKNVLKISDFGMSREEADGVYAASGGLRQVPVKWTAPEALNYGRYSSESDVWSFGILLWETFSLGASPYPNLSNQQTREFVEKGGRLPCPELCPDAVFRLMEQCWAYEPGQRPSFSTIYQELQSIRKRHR
# Fyn = Fyn (UniProt P06241); test: as above
# Chain of Fyn (P06241 whole entry, looked up): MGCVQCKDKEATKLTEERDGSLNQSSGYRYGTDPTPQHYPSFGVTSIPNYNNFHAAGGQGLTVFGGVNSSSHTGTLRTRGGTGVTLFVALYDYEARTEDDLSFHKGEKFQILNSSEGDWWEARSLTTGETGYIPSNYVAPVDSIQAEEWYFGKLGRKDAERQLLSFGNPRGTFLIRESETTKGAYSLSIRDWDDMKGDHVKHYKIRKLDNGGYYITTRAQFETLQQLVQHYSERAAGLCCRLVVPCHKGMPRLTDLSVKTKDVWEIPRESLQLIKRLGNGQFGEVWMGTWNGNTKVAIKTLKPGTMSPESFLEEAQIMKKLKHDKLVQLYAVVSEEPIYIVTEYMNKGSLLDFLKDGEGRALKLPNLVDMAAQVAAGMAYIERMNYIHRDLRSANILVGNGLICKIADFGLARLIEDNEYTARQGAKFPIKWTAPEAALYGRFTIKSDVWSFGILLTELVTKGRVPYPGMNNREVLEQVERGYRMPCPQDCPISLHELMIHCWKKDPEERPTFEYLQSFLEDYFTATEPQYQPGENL
# Hck = Hck (UniProt P08631); test: as above
# Chain of Hck (P08631 whole entry, looked up): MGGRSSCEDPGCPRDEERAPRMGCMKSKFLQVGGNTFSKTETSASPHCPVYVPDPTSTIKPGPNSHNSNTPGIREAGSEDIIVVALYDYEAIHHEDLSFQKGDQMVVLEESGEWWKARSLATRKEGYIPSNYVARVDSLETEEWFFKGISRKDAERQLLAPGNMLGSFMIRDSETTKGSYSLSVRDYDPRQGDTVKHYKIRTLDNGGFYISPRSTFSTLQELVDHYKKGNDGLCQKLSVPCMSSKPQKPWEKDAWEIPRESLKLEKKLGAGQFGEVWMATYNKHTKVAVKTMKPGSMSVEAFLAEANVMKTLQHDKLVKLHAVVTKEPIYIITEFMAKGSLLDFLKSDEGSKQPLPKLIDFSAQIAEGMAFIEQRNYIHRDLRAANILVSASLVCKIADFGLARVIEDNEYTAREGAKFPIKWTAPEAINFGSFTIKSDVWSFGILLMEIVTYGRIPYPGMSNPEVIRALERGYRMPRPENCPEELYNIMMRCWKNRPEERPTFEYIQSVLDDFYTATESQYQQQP
# Jak2 = Jak2 (UniProt O60674); test: as above
# MERTK = MERTK (UniProt Q12866); test: as above
# Chain of MERTK (Q12866 whole entry, looked up): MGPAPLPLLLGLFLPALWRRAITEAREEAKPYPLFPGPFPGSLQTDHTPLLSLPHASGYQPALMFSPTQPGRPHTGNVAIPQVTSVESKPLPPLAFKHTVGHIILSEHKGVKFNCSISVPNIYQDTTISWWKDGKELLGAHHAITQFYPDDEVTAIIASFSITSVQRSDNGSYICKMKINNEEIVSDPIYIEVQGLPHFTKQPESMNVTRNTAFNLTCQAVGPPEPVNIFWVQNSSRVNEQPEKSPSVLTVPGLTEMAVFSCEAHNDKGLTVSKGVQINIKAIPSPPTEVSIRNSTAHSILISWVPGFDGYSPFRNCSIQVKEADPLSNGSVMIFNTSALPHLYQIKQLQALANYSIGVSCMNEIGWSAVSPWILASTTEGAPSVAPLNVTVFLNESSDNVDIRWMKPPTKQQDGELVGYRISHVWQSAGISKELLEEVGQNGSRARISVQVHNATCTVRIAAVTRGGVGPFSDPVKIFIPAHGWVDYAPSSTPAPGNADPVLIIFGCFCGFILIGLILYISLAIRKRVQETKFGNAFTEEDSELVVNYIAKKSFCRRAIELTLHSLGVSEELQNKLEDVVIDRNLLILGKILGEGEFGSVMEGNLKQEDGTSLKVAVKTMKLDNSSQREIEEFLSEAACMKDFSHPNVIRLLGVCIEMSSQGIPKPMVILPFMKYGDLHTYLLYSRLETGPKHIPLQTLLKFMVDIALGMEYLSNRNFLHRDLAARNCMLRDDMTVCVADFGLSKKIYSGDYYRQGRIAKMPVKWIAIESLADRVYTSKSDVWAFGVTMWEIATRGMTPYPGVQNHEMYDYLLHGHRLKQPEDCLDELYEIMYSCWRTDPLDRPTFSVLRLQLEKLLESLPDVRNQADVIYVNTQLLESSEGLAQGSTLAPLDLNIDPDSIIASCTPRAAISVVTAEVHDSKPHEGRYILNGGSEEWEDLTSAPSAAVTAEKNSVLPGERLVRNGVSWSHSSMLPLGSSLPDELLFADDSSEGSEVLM
# c-Abl (mouse) = test: as above
# c-Src = test: as above
# Grb2 SH2 = Grb2 SH2 (UniProt P62993); test: SH2 binding enrichment of the phosphorylated peptide, bacterial display (enrichment ratio); higher = better substrate or ligand; peptides without Tyr show the background
# Chain of Grb2 SH2 (P62993 whole entry, looked up): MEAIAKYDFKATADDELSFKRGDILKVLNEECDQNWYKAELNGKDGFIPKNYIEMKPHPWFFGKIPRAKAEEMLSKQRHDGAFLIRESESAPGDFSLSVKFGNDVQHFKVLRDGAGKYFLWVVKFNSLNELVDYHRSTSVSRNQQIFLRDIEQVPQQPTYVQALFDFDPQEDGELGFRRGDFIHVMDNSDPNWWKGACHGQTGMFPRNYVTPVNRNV
# SHP2-C SH2 = test: as above
# c-Src SH2 = test: as above
# 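Throughout, for SH2 binding enrichment of the phosphorylated peptide, bacterial display: peptide library displayed on the E. coli surface as eCPX fusions, selected cells deep-sequenced, score is each peptide's frequency after selection divided by its frequency in the input.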
# 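Throughout, for phosphorylation enrichment, bacterial display: 11-residue human phosphosite peptides and single-mutation variants displayed on the E. coli surface, counted by deep sequencing, each peptide's frequency after selection divided by its frequency in the unselected input library; frequency after pTyr selection over input frequency; kinase dosed for 20-30% of maximal phosphorylation in three min.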
# Chain of EPHB2 (P29323 whole entry, looked up): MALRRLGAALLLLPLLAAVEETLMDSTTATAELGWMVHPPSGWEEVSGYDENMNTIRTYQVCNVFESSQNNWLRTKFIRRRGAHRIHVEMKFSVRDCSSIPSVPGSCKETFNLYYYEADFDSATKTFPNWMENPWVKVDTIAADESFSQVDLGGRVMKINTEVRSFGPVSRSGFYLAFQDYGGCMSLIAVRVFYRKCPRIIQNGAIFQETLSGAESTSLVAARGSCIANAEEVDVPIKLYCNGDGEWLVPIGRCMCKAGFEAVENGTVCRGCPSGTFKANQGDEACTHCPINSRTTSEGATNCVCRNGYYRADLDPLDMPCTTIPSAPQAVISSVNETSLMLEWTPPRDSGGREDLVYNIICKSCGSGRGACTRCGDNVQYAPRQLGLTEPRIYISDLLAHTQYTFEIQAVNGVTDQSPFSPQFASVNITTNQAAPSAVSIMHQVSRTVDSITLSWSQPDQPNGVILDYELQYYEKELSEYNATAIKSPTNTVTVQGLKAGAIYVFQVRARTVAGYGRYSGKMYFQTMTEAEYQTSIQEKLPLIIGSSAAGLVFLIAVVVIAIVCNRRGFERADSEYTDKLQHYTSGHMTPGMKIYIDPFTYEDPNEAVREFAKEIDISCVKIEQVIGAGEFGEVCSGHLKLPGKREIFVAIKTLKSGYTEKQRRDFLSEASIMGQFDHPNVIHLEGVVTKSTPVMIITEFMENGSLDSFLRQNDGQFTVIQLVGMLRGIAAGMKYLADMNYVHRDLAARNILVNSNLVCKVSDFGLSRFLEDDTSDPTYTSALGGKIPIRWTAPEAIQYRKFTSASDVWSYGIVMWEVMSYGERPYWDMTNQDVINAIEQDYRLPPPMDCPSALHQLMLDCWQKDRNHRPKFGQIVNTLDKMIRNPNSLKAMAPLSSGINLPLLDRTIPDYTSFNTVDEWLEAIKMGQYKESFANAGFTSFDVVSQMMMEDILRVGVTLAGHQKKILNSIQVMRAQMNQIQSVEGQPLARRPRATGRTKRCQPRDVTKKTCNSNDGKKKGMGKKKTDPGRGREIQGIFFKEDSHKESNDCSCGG
Sequence,phosphorylation enrichment (AncSZ),phosphorylation enrichment (EPHB1),phosphorylation enrichment (EPHB2),phosphorylation enrichment (FGFR1),phosphorylation enrichment (FGFR3),phosphorylation enrichment (Fer (mouse)),phosphorylation enrichment (Fes),phosphorylation enrichment (Fyn),phosphorylation enrichment (Hck),phosphorylation enrichment (Jak2),phosphorylation enrichment (MERTK),phosphorylation enrichment (c-Abl (mouse)),phosphorylation enrichment (c-Src),SH2 binding enrichment (Grb2 SH2),SH2 binding enrichment (SHP2-C SH2),SH2 binding enrichment (c-Src SH2)
HNQDGYSYPSR [LDLR_Y845],1.25,0.55,0.584,0.614,0.886,0.738,0.826,0.836,0.618,0.831,0.913,0.823,0.661,1.07,0.707,6.74
HNVPIYEGYAL [ACTA1_Y168],1.56,26,35.1,0.792,0.616,24.7,5.3,16.9,15.1,1.06,13.1,13.2,12.6,0.881,1.01,2.97
HQPGEYLFHAE [FLT3_Y416_I417L],1.09,0.527,0.724,0.628,0.691,0.554,1.13,0.481,0.756,1.29,0.617,1.21,0.879,0.742,1.19,0.514
HSDDDYDDPEL [CLNK_Y69],1.67,0.477,0.719,0.646,0.756,0.399,1.74,0.439,0.846,1.48,0.664,1.06,0.753,0.779,0.829,0.607
HSDFQYGQRSQ [PKP2_Y168_S169G_YF],0.641,0.632,0.628,0.495,0.639,0.78,1.25,0.766,0.587,0.727,0.511,0.509,0.682,0.737,0.675,0.394
HYMELYDLNRD [BBS2_Y648_R643H],1.5,2.98,1.45,3.57,2.94,1.28,1.22,2.58,2.89,1.22,4.26,0.862,6.4,1.07,1.33,2.44
ICGVSYDEFRF [CFTR_Y512_F508C_YF],1.51,0.663,0.642,0.553,0.967,1.17,1.5,0.764,0.842,1.21,0.571,1.03,1.49,0.838,0.664,0.847
IDAVCYYRMEN [NPHS2_Y194_I192V],1.96,0.865,0.745,3.5,3.39,0.729,1.51,0.888,0.862,4.36,0.845,1.22,2.48,0.661,0.49,0.421
IEDPFYGNDFD [ACP1_Y133_S137F_YF],1.27,0.83,0.644,0.548,0.806,0.509,1.21,0.566,0.595,0.972,0.392,0.79,0.544,1.09,0.753,0.736
IEEGTYGVAFR [CDK11B_Y449_V452A_YF],1.32,0.888,2.24,0.465,0.915,4.45,1.11,7.47,6.06,0.859,1.6,0.982,5.45,0.612,0.51,0.374
IEKLTYIDEWF [CPS1_Y872_K875E],1.18,0.624,0.557,0.567,0.737,0.548,1.35,0.453,0.472,1.17,0.488,0.81,0.544,0.698,0.719,0.488
IFLENYNAGTY [CFI_Y421_H418L],0.846,0.656,0.443,0.481,0.897,0.558,1.04,0.415,0.543,0.786,0.403,0.665,0.687,0.937,0.777,0.668
IGEGTYGTVFK [CDK5_Y15],0.707,0.989,2.08,0.515,0.58,1.41,0.793,10.4,9.06,0.788,0.825,0.676,6.34,0.699,0.703,0.434
IGHHAYGDQYR [IDH1_Y135_R132H],0.564,0.426,0.363,0.389,0.342,0.386,0.537,0.355,0.439,0.448,0.421,0.467,0.418,0.724,0.538,0.629
IGNGFYFHVFS [MYBPC3_Y1136_R1138H_YF],1.06,0.639,0.643,0.472,0.757,0.449,1.31,0.4,0.423,1.28,0.419,1.04,0.381,0.982,0.7,0.484
IINENYDFLKG [NUP98_Y1664_YF],0.82,0.677,0.726,0.518,0.631,0.466,0.903,0.426,1.19,0.761,0.602,0.57,0.495,0.831,0.737,0.755
IIWDSYTTNEM [GNB4_Y85_K89E],1.48,0.787,0.795,0.678,0.903,0.705,1.43,0.747,0.54,1.39,0.411,0.829,0.57,0.896,0.752,0.739

Sequence,phosphorylation enrichment (AncSZ),phosphorylation enrichment (EPHB1),phosphorylation enrichment (EPHB2),phosphorylation enrichment (FGFR1),phosphorylation enrichment (FGFR3),phosphorylation enrichment (Fer (mouse)),phosphorylation enrichment (Fes),phosphorylation enrichment (Fyn),phosphorylation enrichment (Hck),phosphorylation enrichment (Jak2),phosphorylation enrichment (MERTK),phosphorylation enrichment (c-Abl (mouse)),phosphorylation enrichment (c-Src),SH2 binding enrichment (Grb2 SH2),SH2 binding enrichment (SHP2-C SH2),SH2 binding enrichment (c-Src SH2)
IKIMGYSIRTI [IDS_Y490],0.991,0.494,0.52,0.424,0.657,0.478,1.01,0.452,0.457,0.862,0.455,0.822,0.571,1.4,1.02,0.816
ILDEAYVMAGV [ERBB2_Y772],1.11,0.439,0.487,0.622,0.642,0.448,0.916,0.555,0.532,0.832,0.441,0.577,0.694,0.935,0.651,0.494
IMITGYLLLFR [INSR_Y87_D86G],1.19,0.521,0.547,0.721,0.866,0.593,1.4,0.63,0.57,1.02,0.668,1.13,0.419,2.37,1.83,0.899
INPIIYAFVGE [CCR5_Y297],1.17,10.7,9.51,3.48,2.75,6.77,2.02,6.13,6.19,1.03,7.72,10.4,4.84,0.776,0.6,0.46
IPQEEYKATGL,0.84,0.706,0.635,0.527,0.677,0.531,1.18,0.497,0.631,0.93,0.492,0.776,0.535,0.763,0.777,0.564
IRKDLYANNVM [ACTA1_Y296],0.559,0.605,0.527,0.447,0.588,0.436,0.863,0.488,0.572,0.772,0.413,0.576,0.419,1.21,0.381,0.732
IRTDAYVRAMT [RPE65_Y89],0.515,0.438,0.458,0.444,0.482,0.398,0.605,0.463,0.414,0.481,0.402,0.522,0.382,0.761,0.527,0.467
ISKILYHIIKG [CDH17_Y489_S484I],0.779,0.679,0.535,0.651,0.601,0.379,0.823,0.449,0.508,0.783,1.11,0.601,0.551,1.75,2,3.02
ISKQGYDEAGP [ACTC1_Y364_E363G],0.897,0.601,0.532,0.539,0.567,0.507,1.01,0.452,0.572,0.931,0.666,0.793,0.541,0.916,0.613,1.42
ISRDVYSTDFF [NTRK2_Y702_M697I_YF],0.903,0.866,0.819,0.934,0.855,0.568,0.929,3.12,1.35,0.785,5.74,0.666,2.84,0.712,0.715,0.505
ITLKGYNLSKS [GNPTAB_Y728],0.601,0.342,0.346,0.397,0.402,0.414,0.686,0.355,0.426,0.482,0.367,0.317,0.451,0.614,0.484,0.321
ITNLLYHVVGW [GBA_Y412],1.18,5.73,3.59,6.87,5.65,2.79,1.32,4.07,5.96,3,7.56,2.9,4.6,0.998,0.954,0.962
ITRDIYETDYY [INSR_Y1185_M1180I],2.67,1.45,1.55,2.03,1.95,0.72,1.47,1.58,1.19,1.09,0.828,0.722,2.76,0.854,0.695,1.1
IVFVIYDEVVK [SLC25A1_Y297],1.16,1.9,2.01,0.53,0.863,0.708,1.19,1.03,1.44,1.26,0.576,0.888,0.855,1.5,1.61,1.27
IYLADCRIMEG [ALOX12B_Y318_Y318C],1.27,0.693,0.932,0.648,0.842,0.65,1.36,0.684,0.691,0.95,0.556,0.869,0.559,0.821,0.671,0.45
IYRASYYRKGG [ALK_Y1282],0.615,0.419,0.481,0.414,0.403,0.45,0.622,0.513,0.476,0.753,0.621,0.676,0.557,0.825,0.702,0.528
